Our source for the Threshold values is US20160115500A1 (University of California, published 2016).

Numbering of substitutions follows the chain as printed. Numbers in names are those of the source.

To fix the notation:
T1: GAL4 activation domain fusion (ACT) to HAB1 (UniProt Q9CAJ0 23-511, limits assumed)
T1 construct: pACT-HAB1 fusion in yeast reporter strains; also called pACT-HAB1
T1 sequence (looked up): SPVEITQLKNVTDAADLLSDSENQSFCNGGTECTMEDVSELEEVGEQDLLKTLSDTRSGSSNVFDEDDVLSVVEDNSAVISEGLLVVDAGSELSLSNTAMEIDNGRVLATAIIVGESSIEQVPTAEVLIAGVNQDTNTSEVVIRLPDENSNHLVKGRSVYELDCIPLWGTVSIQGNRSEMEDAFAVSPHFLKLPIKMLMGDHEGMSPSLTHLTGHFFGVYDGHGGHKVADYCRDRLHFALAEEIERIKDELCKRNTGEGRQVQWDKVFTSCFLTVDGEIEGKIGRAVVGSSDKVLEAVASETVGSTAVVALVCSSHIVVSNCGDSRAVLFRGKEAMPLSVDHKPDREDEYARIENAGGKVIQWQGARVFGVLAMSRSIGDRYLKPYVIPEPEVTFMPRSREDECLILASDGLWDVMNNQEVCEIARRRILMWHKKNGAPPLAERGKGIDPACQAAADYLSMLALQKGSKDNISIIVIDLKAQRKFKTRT

B1: PYR1^K59R,F108E (receptor, not shown: small tags and cut ends)
chain: MPSELTPEERSELKNSIAEFHTYQLDPGSCSSLHAQRIHAPPELVWSIVRRFDKPQTYRHFIKSCSVEQNFEMRVGCTRDVIVISGLPANTSTERLDILDDERRVTGESIIGGEHRLTNYKSVTTVHRFEKENRIWTVVLESYVVDMPEGNSEDDTRMFADTVVKLNLQKLATVAEAMARNSGDGSGSQVT
notes: pBD-PYR1 fusion in yeast
B2: PYR1^K59R,F108A,S122G,V81T (receptor, not shown: small tags and cut ends)
chain: B1 chain with V81T, E108A, S122G
notes: pBD-PYR1 fusion in yeast
B3: PYR1^K59R,F108C (receptor, not shown: small tags and cut ends)
chain: B1 chain with E108C
notes: pBD-PYR1 fusion in yeast
B4: PYR1^Y58H,K59R,V81I,F108A,S122G (receptor)
chain: B1 chain with Y58H, V81I, E108A, S122G
notes: pBD-PYR1 fusion in yeast
B5: PYR1^K59R,F108A,S122G,V164I (receptor)
chain: B1 chain with E108A, S122G, V164I
notes: pBD-PYR1 fusion in yeast
B6: PYR1^Y58H,K59R,V83L,F108A,S122G (receptor, not shown: small tags and cut ends)
chain: B1 chain with Y58H, V83L, E108A, S122G
notes: pBD-PYR1 fusion in yeast
B7: PYR1^K59R,S122G (receptor, not shown: small tags and cut ends)
chain: B1 chain with E108F, S122G
notes: pBD-PYR1 fusion in yeast
B8: PYR1^K59R,V81I,F108A,S122G,A160V (receptor)
chain: B1 chain with V81I, E108A, S122G, A160V
notes: pBD-PYR1 fusion in yeast
B9: PYR1^K59R,F108Q (receptor, not shown: small tags and cut ends)
chain: B1 chain with E108Q
notes: pBD-PYR1 fusion in yeast
B10: PYR1^K59R,F108N (receptor, not shown: small tags and cut ends)
chain: B1 chain with E108N
notes: pBD-PYR1 fusion in yeast
B11: PYR1^K59R,F108I (receptor, not shown: small tags and cut ends)
chain: B1 chain with E108I
notes: pBD-PYR1 fusion in yeast
B12: PYR1^K59R,F108V (receptor, not shown: small tags and cut ends)
chain: B1 chain with E108V
notes: pBD-PYR1 fusion in yeast
B13: PYR1^K59R,F108G (receptor, not shown: small tags and cut ends)
chain: B1 chain with E108G
notes: pBD-PYR1 fusion in yeast
B14: PYR1^K59R,F108S (receptor)
chain: B1 chain with E108S
notes: pBD-PYR1 fusion in yeast
B15: PYR1^K59R,F108Q,S122G (receptor, not shown: small tags and cut ends)
chain: B1 chain with E108Q, S122G
notes: pBD-PYR1 fusion in yeast
B16: PYR1^K59R,F108A,S122G,V83L (receptor)
chain: B1 chain with V83L, E108A, S122G
notes: pBD-PYR1 fusion in yeast
B17: PYR1^Y58H,K59R,F108A,S122G (receptor)
chain: B1 chain with Y58H, E108A, S122G
notes: pBD-PYR1 fusion in yeast
B18: PYR1^K59R,F108T (receptor, not shown: small tags and cut ends)
chain: B1 chain with E108T
notes: pBD-PYR1 fusion in yeast
B19: PYR1^K59R,F108I,S122G (receptor, not shown: small tags and cut ends)
chain: B1 chain with E108I, S122G
notes: pBD-PYR1 fusion in yeast
B20: PYR1^Y58H,K59R,V81I,F108A,S122G,V164I (receptor, not shown: small tags and cut ends)
chain: B1 chain with Y58H, V81I, E108A, S122G, V164I
notes: pBD-PYR1 fusion in yeast
B21: PYR1^Y58H,K59R,V81I,F108A,S122G,F159L (receptor, not shown: small tags and cut ends)
chain: B1 chain with Y58H, V81I, E108A, S122G, F159L
notes: pBD-PYR1 fusion in yeast; also called PYR1^MANDI; pBD-PYR1^MANDI

In the first assay the target is T1, GAL4 activation domain fusion (ACT) to …. Nature of the assay: yeast two-hybrid, X-gal; lowest dichlobenil concentration giving signal.
B1 gave a Threshold of 100 µM.

The target is the same in another assay. Description: yeast two-hybrid, X-gal; lowest mandipropamid concentration giving signal.
Turning to B2, the Threshold turned out to be 0.25 µM. The same measure, in the same setting: under B3 stands 100 µM. Same read-out and setting: for B4 the value was 0.05 µM; for B5, 0.25 µM; for B6, 0.01 µM. Turning to B7, the Threshold stood at 100 µM. Molecule B8 displayed a Threshold of 0.05 µM.

In the case of B9, the Threshold was found to be 100 µM.

B1 had a Threshold of 100 µM.

B10 came in with a Threshold of 100 µM.

For B11, the Threshold stood at 100 µM. Turning to B12, the Threshold was found to be 100 µM. The molecule B13 gave a Threshold of 100 µM. For B14, the Threshold came to 100 µM.

Regarding B15, the Threshold was 10 µM. B16 had a Threshold of 0.05 µM. Take B17: the Threshold was 0.25 µM. As to B18, the Threshold stood at 100 µM. On to B19, for which the Threshold was 10 µM. On to B20, for which the Threshold was found to be 0.01 µM. Same read-out and setting: under B21 stands 0.002 µM.
